# Legend:
# [1] = molecular target: rHuman IGF-1 sR (IGF-1 sR), CF (R&D Systems Cat#391-GR) (human) (UniProt P08069); assay: ECL (MSD multi-spot), Fab 14.5 nM; blank 117
# [2] = molecular target: rHuman P-Cadherin/Fc Chimera, CF (R&D Systems Cat#861-PC) (human) (UniProt P22223); assay: ECL (MSD multi-spot), Fab 14.5 nM; blank 117
# [3] = molecular target: rHuman EGF R/Fc Chimera, CF (R&D Systems Cat#344-ER) (human) (UniProt P00533); assay: ECL (MSD multi-spot), Fab 14.5 nM; blank 117
# [4] = molecular target: rHuman IGF-1 sR (IGF-1 sR), CF (R&D Systems Cat#391-GR) (human) (UniProt P08069); assay: ECL (MSD multi-spot), Fab 930 nM; blank 1206
# [5] = molecular target: rHuman P-Cadherin/Fc Chimera, CF (R&D Systems Cat#861-PC) (human) (UniProt P22223); assay: ECL (MSD multi-spot), Fab 930 nM; blank 1206
# [6] = molecular target: rHuman EGF R/Fc Chimera, CF (R&D Systems Cat#344-ER) (human) (UniProt P00533); assay: ECL (MSD multi-spot), Fab 930 nM; blank 1206
# [7] = molecular target: rHuman IGF-1 sR (IGF-1 sR), CF (R&D Systems Cat#391-GR) (human) (UniProt P08069); assay: ECL (MSD multi-spot), Fab 232.5 nM; blank 460
# [8] = molecular target: rHuman P-Cadherin/Fc Chimera, CF (R&D Systems Cat#861-PC) (human) (UniProt P22223); assay: ECL (MSD multi-spot), Fab 232.5 nM; blank 460
# [9] = molecular target: rHuman EGF R/Fc Chimera, CF (R&D Systems Cat#344-ER) (human) (UniProt P00533); assay: ECL (MSD multi-spot), Fab 232.5 nM; blank 460
# [10] = molecular target: rHuman IGF-1 sR (IGF-1 sR), CF (R&D Systems Cat#391-GR) (human) (UniProt P08069); assay: ECL (MSD multi-spot), Fab 58.1 nM; blank 225
# [11] = molecular target: rHuman P-Cadherin/Fc Chimera, CF (R&D Systems Cat#861-PC) (human) (UniProt P22223); assay: ECL (MSD multi-spot), Fab 58.1 nM; blank 225
# [12] = molecular target: rHuman EGF R/Fc Chimera, CF (R&D Systems Cat#344-ER) (human) (UniProt P00533); assay: ECL (MSD multi-spot), Fab 58.1 nM; blank 225
# [13] = molecular target: Recombinant Human DLL4 (R&D Systems Cat#1506-D4/CF) (human) (UniProt Q9NR61); assay: MSD ECL multi-spot plate; Fab 1570 nM; blank spot 866
# [14] = molecular target: rHuman Notch-1/Fc Chimera, CF (R&D Systems Cat#3647-TK) (human) (UniProt P46531); assay: as above
# [15] = molecular target: rHuman EGF R/Fc Chimera, CF (R&D Systems Cat#344-ER) (human) (UniProt P00533); assay: as above
# [16] = molecular target: Recombinant Human DLL4 (R&D Systems Cat#1506-D4/CF) (human) (UniProt Q9NR61); assay: MSD ECL multi-spot plate; Fab 98.1 nM; blank spot 210
# [17] = molecular target: rHuman Notch-1/Fc Chimera, CF (R&D Systems Cat#3647-TK) (human) (UniProt P46531); assay: as above
# [18] = molecular target: rHuman EGF R/Fc Chimera, CF (R&D Systems Cat#344-ER) (human) (UniProt P00533); assay: as above
# [19] = molecular target: Recombinant Human DLL4 (R&D Systems Cat#1506-D4/CF) (human) (UniProt Q9NR61); assay: MSD ECL multi-spot plate; Fab 392.5 nM; blank spot 338
# [20] = molecular target: rHuman Notch-1/Fc Chimera, CF (R&D Systems Cat#3647-TK) (human) (UniProt P46531); assay: as above
# [21] = molecular target: rHuman EGF R/Fc Chimera, CF (R&D Systems Cat#344-ER) (human) (UniProt P00533); assay: as above
# [22] = molecular target: Recombinant Human DLL4 (R&D Systems Cat#1506-D4/CF) (human) (UniProt Q9NR61); assay: MSD ECL multi-spot plate; Fab […]; blank spot 149
# [23] = molecular target: rHuman Notch-1/Fc Chimera, CF (R&D Systems Cat#3647-TK) (human) (UniProt P46531); assay: MSD ECL multi-spot plate; Fab […]; blank spot 149
# [24] = molecular target: rHuman EGF R/Fc Chimera, CF (R&D Systems Cat#344-ER) (human) (UniProt P00533); assay: MSD ECL multi-spot plate; Fab […]; blank spot 149
# [25] = molecular target: rHuman Erythropoietin R/Fc Chimera, CF (R&D Systems Cat#963-ER) (human) (UniProt P19235); assay: ECL (MSD multi-spot), antigen spotted on plate; Fab 200 nM; blank 1659
# [26] = molecular target: rHuman CD44/Fc Chimera, CF (R&D Systems Cat#3660-CD) (human) (UniProt P16070); assay: as above
# [27] = molecular target: rHuman P-Cadherin/Fc Chimera, CF (R&D Systems Cat#861-PC) (human) (UniProt P22223); assay: as above
# [28] = molecular target: rHuman Notch-1/Fc Chimera, CF (R&D Systems Cat#3647-TK) (human) (UniProt P46531); assay: as above
# [29] = molecular target: rHuman ErbB2/Fc Chimera, CF (R&D Systems Cat#1129-ER) (human) (UniProt P04626); assay: as above
# [30] = molecular target: rHuman Erythropoietin R/Fc Chimera, CF (R&D Systems Cat#963-ER) (human) (UniProt P19235); assay: ECL (MSD multi-spot), antigen spotted on plate; Fab 8 nM; blank 1188
# [31] = molecular target: rHuman CD44/Fc Chimera, CF (R&D Systems Cat#3660-CD) (human) (UniProt P16070); assay: as above
# [32] = molecular target: rHuman P-Cadherin/Fc Chimera, CF (R&D Systems Cat#861-PC) (human) (UniProt P22223); assay: as above
# [33] = molecular target: rHuman Notch-1/Fc Chimera, CF (R&D Systems Cat#3647-TK) (human) (UniProt P46531); assay: as above
# [34] = molecular target: rHuman ErbB2/Fc Chimera, CF (R&D Systems Cat#1129-ER) (human) (UniProt P04626); assay: as above
# [35] = molecular target: rHuman Erythropoietin R/Fc Chimera, CF (R&D Systems Cat#963-ER) (human) (UniProt P19235); assay: ECL (MSD multi-spot), antigen spotted on plate; Fab 40 nM; blank 1229
# [36] = molecular target: rHuman CD44/Fc Chimera, CF (R&D Systems Cat#3660-CD) (human) (UniProt P16070); assay: as above
# [37] = molecular target: rHuman P-Cadherin/Fc Chimera, CF (R&D Systems Cat#861-PC) (human) (UniProt P22223); assay: as above
# [38] = molecular target: rHuman Notch-1/Fc Chimera, CF (R&D Systems Cat#3647-TK) (human) (UniProt P46531); assay: as above
# [39] = molecular target: rHuman ErbB2/Fc Chimera, CF (R&D Systems Cat#1129-ER) (human) (UniProt P04626); assay: as above
# [40] = molecular target: rHuman Erythropoietin R/Fc Chimera, CF (R&D Systems Cat#963-ER) (human) (UniProt P19235); assay: ECL (MSD multi-spot), antigen spotted on plate; Fab 1000 nM; blank 2142
# [41] = molecular target: rHuman CD44/Fc Chimera, CF (R&D Systems Cat#3660-CD) (human) (UniProt P16070); assay: as above
# [42] = molecular target: rHuman P-Cadherin/Fc Chimera, CF (R&D Systems Cat#861-PC) (human) (UniProt P22223); assay: as above
# [43] = molecular target: rHuman Notch-1/Fc Chimera, CF (R&D Systems Cat#3647-TK) (human) (UniProt P46531); assay: as above
# [44] = molecular target: rHuman ErbB2/Fc Chimera, CF (R&D Systems Cat#1129-ER) (human) (UniProt P04626); assay: as above
# [45] = molecular target: rHuman Erythropoietin R/Fc Chimera, CF (R&D Systems Cat#963-ER) (human) (UniProt P19235); assay: ECL (MSD multi-spot), antigen spotted on plate; Fab 1.6 nM; blank 648
# [46] = molecular target: rHuman CD44/Fc Chimera, CF (R&D Systems Cat#3660-CD) (human) (UniProt P16070); assay: as above
# [47] = molecular target: rHuman P-Cadherin/Fc Chimera, CF (R&D Systems Cat#861-PC) (human) (UniProt P22223); assay: as above
# [48] = molecular target: rHuman Notch-1/Fc Chimera, CF (R&D Systems Cat#3647-TK) (human) (UniProt P46531); assay: as above
# [49] = molecular target: rHuman ErbB2/Fc Chimera, CF (R&D Systems Cat#1129-ER) (human) (UniProt P04626); assay: as above
# [50] = molecular target: rHuman Erythropoietin R/Fc Chimera, CF (R&D Systems Cat#963-ER) (human) (UniProt P19235); assay: ECL (MSD multi-spot), antigen spotted on plate; Fab […]; blank 428
# [51] = molecular target: rHuman CD44/Fc Chimera, CF (R&D Systems Cat#3660-CD) (human) (UniProt P16070); assay: as above
# [52] = molecular target: rHuman P-Cadherin/Fc Chimera, CF (R&D Systems Cat#861-PC) (human) (UniProt P22223); assay: as above
# [53] = molecular target: rHuman Notch-1/Fc Chimera, CF (R&D Systems Cat#3647-TK) (human) (UniProt P46531); assay: as above
# [54] = molecular target: rHuman ErbB2/Fc Chimera, CF (R&D Systems Cat#1129-ER) (human) (UniProt P04626); assay: as above
# Sequence of rHuman Erythropoietin R/Fc Chimera, CF (R&D Systems Cat#963-ER) (human) (P19235 25-250, change not shown): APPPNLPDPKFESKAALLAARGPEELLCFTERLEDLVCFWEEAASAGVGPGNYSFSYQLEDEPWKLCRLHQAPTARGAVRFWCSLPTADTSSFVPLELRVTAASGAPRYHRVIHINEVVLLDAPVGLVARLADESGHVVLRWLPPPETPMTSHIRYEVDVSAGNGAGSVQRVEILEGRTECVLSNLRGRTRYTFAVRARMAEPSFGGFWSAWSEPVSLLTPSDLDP
substance,measurement,setting,value
Fab VH1-46_IGHD6-13*01_IGHJ4*01 & O1_IGKJ1*01,ECL signal,[1],234 ECL signal
same,ECL signal,[2],277 ECL signal
same,ECL signal,[3],357 ECL signal
same,ECL signal,[4],1920 ECL signal
same,ECL signal,[5],2440 ECL signal
same,ECL signal,[6],3110 ECL signal
same,ECL signal,[7],569 ECL signal
same,ECL signal,[8],655 ECL signal
same,ECL signal,[9],803 ECL signal
same,ECL signal,[10],343 ECL signal
same,ECL signal,[11],478 ECL signal
same,ECL signal,[12],444 ECL signal
Fab VH1-46_IGHD3-10*01_IGHJ4*01 & O1_IGKJ1*01,ECL signal,[13],2700 ECL signal
same,ECL signal,[14],1640 ECL signal
same,ECL signal,[15],2480 ECL signal
same,ECL signal,[16],402 ECL signal
same,ECL signal,[17],313 ECL signal
same,ECL signal,[18],4390 ECL signal
same,ECL signal,[19],735 ECL signal
same,ECL signal,[20],749 ECL signal
same,ECL signal,[21],744 ECL signal
same,ECL signal,[22],339 ECL signal
same,ECL signal,[23],434 ECL signal
same,ECL signal,[24],317 ECL signal
Fab VH1-46_IGHD6-6*01_IGHJ1*01_S104A & L6_IGKJ1*01,ECL signal,[25],4000
same,ECL signal,[26],3190
same,ECL signal,[27],3990
same,ECL signal,[28],5700
same,ECL signal,[29],4040
same,ECL signal,[30],1980
same,ECL signal,[31],1490
same,ECL signal,[32],1920
same,ECL signal,[33],2200
same,ECL signal,[34],1900
same,ECL signal,[35],3510
same,ECL signal,[36],2680
same,ECL signal,[37],2600
same,ECL signal,[38],3480
same,ECL signal,[39],2230
same,ECL signal,[40],8290
same,ECL signal,[41],4730
same,ECL signal,[42],5630
same,ECL signal,[43],8060
same,ECL signal,[44],7420
same,ECL signal,[45],1120
same,ECL signal,[46],1020
same,ECL signal,[47],1140
same,ECL signal,[48],1170
same,ECL signal,[49],1170
same,ECL signal,[50],739
same,ECL signal,[51],684
same,ECL signal,[52],649
same,ECL signal,[53],739
same,ECL signal,[54],766
